Legend:
Test in all cases: ELISA, peptide 2 µg/mL, mAb 5 µg/mL
[1] = biological target: NM10
[2] = biological target: NM11
[3] = biological target: NM16
[4] = biological target: NM9

Binder	binding activity (ELISA A450) [1]	binding activity (ELISA A450) [2]	binding activity (ELISA A450) [3]	binding activity (ELISA A450) [4]
8i10 (antibody, V domains shown) VH: QVQLQESGPGLVKPSETLSLTCTVSGSSISNYYWSWIRQSPGKGLEWIGFIYYGGNTKYNPSLKSRVTISQDTSKSQVSLTMSSVTAAESAVYFCARASCSGGYCILDYWGQGTLVTVS VL: DIQMTQSPSSLSASVGDRVTITCRASQNIYKYLNWYQQRPGKAPKGLISAASGLQSGVPSRFSGSGSGTDFTLTITSLQPEDFATYYCQQSYSPPLTFGGGTRVEIK	0.1	0.13	0.29	0.12
23K12 (antibody, V domains shown) VH: EVQLVESGGGLVQPGGSLRISCAASGFTVSSNYMSWVRQAPGKGLEWVSVIYSGGSTYYADSVKGRFSFSRDNSKNTVFLQMNSLRAEDTAVYYCARCLSRMRGYGLDVWGQGTTVTVS VL: DIQMTQSPSSLSASVGDRVTITCRTSQSISSYLNWYQQKPGKAPKLLIYAASSLQSGVPSRFSGSGSGTDFTLTISGLQPEDFATYYCQQSYSMPAFGQGTKLEIK	0.24	0.3	0.62	0.3
